T1: murine interleukin-1β converting enzyme (ICE) (mouse)
T1 sequence: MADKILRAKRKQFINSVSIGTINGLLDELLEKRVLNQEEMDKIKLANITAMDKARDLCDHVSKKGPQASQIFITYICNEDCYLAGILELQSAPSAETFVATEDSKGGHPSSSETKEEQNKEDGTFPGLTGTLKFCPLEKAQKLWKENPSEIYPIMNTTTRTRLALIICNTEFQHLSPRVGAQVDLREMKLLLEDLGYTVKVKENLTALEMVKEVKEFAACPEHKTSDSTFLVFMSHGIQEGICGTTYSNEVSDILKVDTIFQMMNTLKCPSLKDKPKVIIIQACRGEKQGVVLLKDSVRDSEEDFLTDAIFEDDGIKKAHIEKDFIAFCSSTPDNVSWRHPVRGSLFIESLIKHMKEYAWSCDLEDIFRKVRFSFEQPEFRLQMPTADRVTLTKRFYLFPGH


Assays:
[1] = target: mouse precursor form of IL-1β (preIL-1β) (mouse) (UniProt P10749)
[2] = target: T1, murine interleukin-1β converting enzyme (ICE) (mouse)

Row | Molecule | IL-1β (pg/ml) released into the medium by macrophages stimulated with LPS and ATP, ELISA [1] | percent inhibition of matIL-1β release from LPS-treated ICE +/+ macrophages [2]
1 | murine interleukin-1β converting enzyme (ICE) | 4430 pg/mL | 
2 | Ac-YVAD-aldehyde [tetrapeptide aldehyde Ac-YVAD-CHO] |  | 78%
